Data reported in IntAct's records for PubMed 29892012.

B1: Abl interactor 2 (Homo sapiens), Q9NYB9 (parent)
chain: MAELQMLLEEEIPGGRRALFDSYTNLERVADYCENNYIQSADKQRALEETKAYTTQSLASVAYLINTLANNVLQMLDIQASQLRRMESSINHISQTVDIHKEKVARREIGILTTNKNTSRTHKIIAPANLERPVRYIRKPIDYTILDDIGHGVKWLLRFKVSTQNMKMGGLPRTTPPTQKPPSPPMSGKGTLGRHSPYRTLEPVRPPVVPNDYVPSPTRNMAPSQQSPVRTASVNQRNRTYSSSGSSGGSHPSSRSSSRENSGSGSVGVPIAVPTPSPPSVFPAPAGSAGTPPLPATSASAPAPLVPATVPSSTAPNAAAGGAPNLADGFTSPTPPVVSSTPPTGHPVQFYSMNRPASRHTPPTIGGSLPYRRPPSITSQTSLQNQMNGGPFYSQNPVSDTPPPPPPVEEPVFDESPPPPPPPEDYEEEEAAVVEYSDPYAEEDPPWAPRSYLEKVVAIYDYTKDKEDELSFQEGAIIYVIKKNDDGWYEGVMNGVTGLFPGNYVESIMHYSE
B2: E3 ubiquitin-protein ligase LNX (Homo sapiens), Q8TBB1 (parent)
chain: MNQPESANDPEPLCAVCGQAHSLEENHFYSYPEEVDDDLICHICLQALLDPLDTPCGHTYCTLCLTNFLVEKDFCPMDRKPLVLQHCKKSSILVNKLLNKLLVTCPFREHCTQVLQRCDLEHHFQTSCKGASHYGLTKDRKRRSQDGCPDGCASLTATAPSPEVSAAATISLMTDEPGLDNPAYVSSAEDGQPAISPVDSGRSNRTRARPFERSTIRSRSFKKINRALSVLRRTKSGSAVANHADQGRENSENTTAPEVFPRLYHLIPDGEITSIKINRVDPSESLSIRLVGGSETPLVHIIIQHIYRDGVIARDGRLLPGDIILKVNGMDISNVPHNYAVRLLRQPCQVLWLTVMREQKFRSRNNGQAPDAYRPRDDSFHVILNKSSPEEQLGIKLVRKVDEPGVFIFNVLDGGVAYRHGQLEENDRVLAINGHDLRYGSPESAAHLIQASERRVHLVVSRQVRQRSPDIFQEAGWNSNGSWSPGPGERSNTPKPLHPTITCHEKVVNIQKDPGESLGMTVAGGASHREWDLPIYVISVEPGGVISRDGRIKTGDILLNVDGVELTEVSRSEAVALLKRTSSSIVLKALEVKEYEPQEDCSSPAALDSNHNMAPPSDWSPSWVMWLELPRCLYNCKDIVLRRNTAGSLGFCIVGGYEEYNGNKPFFIKSIVEGTPAYNDGRIRCGDILLAVNGRSTSGMIHACLARLLKELKGRITLTIVSWPGTFL
partner: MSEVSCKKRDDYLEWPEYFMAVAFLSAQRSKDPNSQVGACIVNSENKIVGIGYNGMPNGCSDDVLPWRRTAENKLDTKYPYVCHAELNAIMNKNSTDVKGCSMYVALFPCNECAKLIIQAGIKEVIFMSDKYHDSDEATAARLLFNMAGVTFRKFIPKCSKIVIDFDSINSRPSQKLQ
B3: CGG triplet repeat-binding protein 1 (Homo sapiens), Q9UFW8 (parent)
chain: MERFVVTAPPARNRSKTALYVTPLDRVTEFGGELHEDGGKLFCTSCNVVLNHVRKSAISDHLKSKTHTKRKAEFEEQNVRKKQRPLTASLQCNSTAQTEKVSVIQDFVKMCLEANIPLEKADHPAVRAFLSRHVKNGGSIPKSDQLRRAYLPDGYENENQLLNSQDC
partner: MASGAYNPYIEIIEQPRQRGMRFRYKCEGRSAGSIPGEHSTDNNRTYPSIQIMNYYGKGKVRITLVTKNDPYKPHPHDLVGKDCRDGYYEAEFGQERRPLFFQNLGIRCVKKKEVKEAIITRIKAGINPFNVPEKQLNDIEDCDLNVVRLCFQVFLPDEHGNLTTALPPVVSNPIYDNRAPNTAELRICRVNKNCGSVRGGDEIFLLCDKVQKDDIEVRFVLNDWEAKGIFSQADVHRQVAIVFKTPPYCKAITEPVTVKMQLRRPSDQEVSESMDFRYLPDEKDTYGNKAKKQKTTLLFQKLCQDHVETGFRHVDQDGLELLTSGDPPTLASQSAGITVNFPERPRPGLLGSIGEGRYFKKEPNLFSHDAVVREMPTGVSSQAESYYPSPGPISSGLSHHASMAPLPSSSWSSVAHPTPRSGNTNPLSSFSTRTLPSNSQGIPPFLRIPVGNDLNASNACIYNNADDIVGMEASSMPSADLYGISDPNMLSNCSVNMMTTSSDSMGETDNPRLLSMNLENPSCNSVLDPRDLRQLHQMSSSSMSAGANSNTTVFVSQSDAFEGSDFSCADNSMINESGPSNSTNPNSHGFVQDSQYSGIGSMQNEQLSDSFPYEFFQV
B4: Melanoma-associated antigen 8 (Homo sapiens), P43361 (parent)
chain: MLLGQKSQRYKAEEGLQAQGEAPGLMDVQIPTAEEQKAASSSSTLIMGTLEEVTDSGSPSPPQSPEGASSSLTVTDSTLWSQSDEGSSSNEEEGPSTSPDPAHLESLFREALDEKVAELVRFLLRKYQIKEPVTKAEMLESVIKNYKNHFPDIFSKASECMQVIFGIDVKEVDPAGHSYILVTCLGLSYDGLLGDDQSTPKTGLLIIVLGMILMEGSRAPEEAIWEALSVMGLYDGREHSVYWKLRKLLTQEWVQENYLEYRQAPGSDPVRYEFLWGPRALAETSYVKVLEHVVRVNARVRISYPSLHEEALGEEKGV
B5: Coiled-coil domain-containing protein 14 (Homo sapiens), Q49A88 (parent)
chain: MKRGIRRDPFRKRKLGGRAKKVREPTAVNSFYREASLPSVWASLRRREMVRSGARPGQVLSSGRHTGPAKLTNGKKATYLRKIPRFNADSGYSIHSDSESQAETVHGLDGCASLLRDILRNEDSGSETAYLENRSNSRPLESKRYGSKKKRHEKHTIPLVVQKETSSSDNKKQIPNEASARSERDTSDLEQNWSLQDHYRMYSPIIYQALCEHVQTQMSLMNDLTSKNIPNGIPAVPCHAPSHSESQATPHSSYGLCTSTPVWSLQRPPCPPKVHSEVQTDGNSQFASQGKTVSATCTDVLRNSFNTSPGVPCSLPKTDISAIPTLQQLGLVNGILPQQGIHKETDLLKCIQTYLSLFRSHGKETHLDSQTHRSPTQSQPAFLATNEEKCAREQIREATSERKDLNIHVRDTKTVKDVQKAKNVNKTAEKVRIIKYLLGELKALVAEQEDSEIQRLITEMEACISVLPTVSGNTDIQVEIALAMQPLRSENAQLRRQLRILNQQLREQQKTQKPSGAVDCNLELFSLQSLNMSLQNQLEESLKSQELLQSKNEELLKVIENQKDENKKFSSIFKDKDQTILENKQQYDIEITRIKIELEEALVNVKSSQFKLETAEKENQILGITLRQRDAEVTRLRELTRTLQTSMAKLLSDLSVDSARCKPGNNLTKSLLNIHDKQLQHDPAPAHTSIMSYLNKLETNYSFTHSEPLSTIKNEETIEPDKTYENVLSSRGPQNSNTRGMEEASAPGIISALSKQDSDEGSETMALIEDEHNLDNTIYIPFARSTPEKKSPLSKRLSPQPQIRAATTQLVSNSGLAVSGKENKLCTPVICSSSTKEAEDAPEKLSRASDMKDTQLLKKIKEAIGKIPAATKEPEEQTACHGPSGCLSNSLQVKGNTVCDGSVFTSDLMSDWSISSFSTFTSRDEQDFRNGLAALDANIARLQKSLRTGLLEK
partner: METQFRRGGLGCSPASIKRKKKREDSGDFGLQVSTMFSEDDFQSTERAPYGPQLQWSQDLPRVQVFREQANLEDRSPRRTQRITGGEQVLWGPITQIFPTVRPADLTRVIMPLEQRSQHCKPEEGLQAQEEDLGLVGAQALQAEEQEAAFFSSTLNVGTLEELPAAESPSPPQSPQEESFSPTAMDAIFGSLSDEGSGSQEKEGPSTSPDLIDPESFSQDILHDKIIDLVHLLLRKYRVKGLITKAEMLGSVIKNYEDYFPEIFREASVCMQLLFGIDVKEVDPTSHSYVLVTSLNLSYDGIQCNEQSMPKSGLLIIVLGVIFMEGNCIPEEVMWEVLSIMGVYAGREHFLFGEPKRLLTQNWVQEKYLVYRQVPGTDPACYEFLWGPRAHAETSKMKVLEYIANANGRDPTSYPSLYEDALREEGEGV
B6: Histone-lysine N-methyltransferase SMYD1 (Homo sapiens), Q8NB12 (parent)
chain: MTIGRMENVEVFTAEGKGRGLKATKEFWAADIIFAERAYSAVVFDSLVNFVCHTCFKRQEKLHRCGQCKFAHYCDRTCQKDAWLNHKNECSAIKRYGKVPNENIRLAARIMWRVEREGTGLTEGCLVSVDDLQNHVEHFGEEEQKDLRVDVDTFLQYWPPQSQQFSMQYISHIFGVINCNGFTLSDQRGLQAVGVGIFPNLGLVNHDCWPNCTVIFNNGNHEAVKSMFHTQMRIELRALGKISEGEELTVSYIDFLNVSEERKRQLKKQYYFDCTCEHCQKKLKDDLFLGVKDNPKPSQEVVKEMIQFSKDTLEKIDKARSEGLYHEVVKLCRECLEKQEPVFADTNIYMLRMLSIVSEVLSYLQAFEEASFYARRMVDGYMKLYHPNNAQLGMAVMRAGLTNWHAGNIEVGHGMICKAYAILLVTHGPSHPITKDLEAMRVQTEMELRMFRQNEFMYYKMREAALNNQPMQVMAEPSNEPSPALFHKKQ
partner: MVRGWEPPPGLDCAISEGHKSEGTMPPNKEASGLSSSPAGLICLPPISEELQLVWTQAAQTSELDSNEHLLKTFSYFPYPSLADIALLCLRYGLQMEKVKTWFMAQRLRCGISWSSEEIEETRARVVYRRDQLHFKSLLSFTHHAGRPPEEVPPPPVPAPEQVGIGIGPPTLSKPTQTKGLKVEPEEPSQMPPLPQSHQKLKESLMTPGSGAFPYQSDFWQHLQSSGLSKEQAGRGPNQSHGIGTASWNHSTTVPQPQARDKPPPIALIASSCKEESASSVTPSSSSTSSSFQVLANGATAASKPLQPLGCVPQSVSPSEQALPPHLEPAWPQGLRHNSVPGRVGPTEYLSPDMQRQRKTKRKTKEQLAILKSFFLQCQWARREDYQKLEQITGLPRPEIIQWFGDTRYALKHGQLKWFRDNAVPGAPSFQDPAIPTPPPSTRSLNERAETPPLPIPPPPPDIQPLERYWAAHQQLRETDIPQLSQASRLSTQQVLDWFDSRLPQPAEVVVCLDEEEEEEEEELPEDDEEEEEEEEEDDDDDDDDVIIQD

Variants of: B1
Details: with ift20_human IFT20, Q8IY31
Chain of ift20_human IFT20, Q8IY31 (Q8IY31 whole entry): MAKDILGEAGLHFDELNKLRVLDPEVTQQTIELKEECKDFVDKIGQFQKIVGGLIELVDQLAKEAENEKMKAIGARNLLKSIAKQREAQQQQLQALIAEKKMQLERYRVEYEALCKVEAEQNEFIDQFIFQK

| effect of a mutation on the interaction | Variant |
| --- | --- |
| with no effect | R373C |

Variants of: B1
Details: with k1h1_human KRT31, Q15323
Chain of k1h1_human KRT31, Q15323 (Q15323 whole entry): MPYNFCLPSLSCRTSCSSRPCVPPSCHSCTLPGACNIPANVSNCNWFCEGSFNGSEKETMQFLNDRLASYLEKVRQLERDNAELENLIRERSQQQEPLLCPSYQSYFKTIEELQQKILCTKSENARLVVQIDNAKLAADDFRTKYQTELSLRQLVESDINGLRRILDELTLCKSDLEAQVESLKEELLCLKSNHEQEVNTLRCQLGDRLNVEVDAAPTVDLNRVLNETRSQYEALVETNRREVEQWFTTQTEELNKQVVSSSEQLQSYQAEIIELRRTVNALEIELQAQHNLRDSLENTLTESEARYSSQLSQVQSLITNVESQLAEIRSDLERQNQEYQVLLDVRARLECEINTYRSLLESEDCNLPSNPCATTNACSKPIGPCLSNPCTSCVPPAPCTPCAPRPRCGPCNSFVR

| effect of a mutation on the interaction | Variant |
| --- | --- |
| with no effect | R373C |

Variants of: B1
Details: with aapk2_human PRKAA2, P54646

| effect of a mutation on the interaction | Variant |
| --- | --- |
| with no effect | R373C |

Variants of: B1
Details: with stam2_human STAM2, O75886

| effect of a mutation on the interaction | Variant |
| --- | --- |
| with no effect | R373C |

Variants of: B1
Details: with aapk1_human PRKAA1, Q13131
Chain of aapk1_human PRKAA1, Q13131 (Q13131 whole entry, looked up): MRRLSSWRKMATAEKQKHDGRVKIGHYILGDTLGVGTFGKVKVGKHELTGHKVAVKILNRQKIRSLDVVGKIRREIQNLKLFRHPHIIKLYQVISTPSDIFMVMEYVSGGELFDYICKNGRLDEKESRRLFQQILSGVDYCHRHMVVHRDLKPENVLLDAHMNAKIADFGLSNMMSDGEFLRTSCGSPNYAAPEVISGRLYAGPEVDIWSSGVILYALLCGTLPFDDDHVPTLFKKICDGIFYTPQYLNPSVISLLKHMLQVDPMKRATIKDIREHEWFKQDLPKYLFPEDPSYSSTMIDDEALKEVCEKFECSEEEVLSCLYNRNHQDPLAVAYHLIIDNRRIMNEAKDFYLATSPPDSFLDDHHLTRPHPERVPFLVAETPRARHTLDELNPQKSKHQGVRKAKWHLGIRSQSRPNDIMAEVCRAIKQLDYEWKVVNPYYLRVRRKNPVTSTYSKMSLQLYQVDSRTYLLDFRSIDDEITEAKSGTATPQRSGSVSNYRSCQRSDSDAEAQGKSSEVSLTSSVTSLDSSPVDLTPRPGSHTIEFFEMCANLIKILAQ

| effect of a mutation on the interaction | Variant |
| --- | --- |
| with no effect | R373C |

Variants of: B1
Details: with hnrpk_human HNRNPK

| effect of a mutation on the interaction | Variant |
| --- | --- |
| with no effect | R373C |

Variants of: B1
Details: with vasp_human VASP

| effect of a mutation on the interaction | Variant |
| --- | --- |
| with no effect | R373C |

Variants of: B1
Details: with KRT15, P19012
Chain of KRT15, P19012 (P19012 whole entry): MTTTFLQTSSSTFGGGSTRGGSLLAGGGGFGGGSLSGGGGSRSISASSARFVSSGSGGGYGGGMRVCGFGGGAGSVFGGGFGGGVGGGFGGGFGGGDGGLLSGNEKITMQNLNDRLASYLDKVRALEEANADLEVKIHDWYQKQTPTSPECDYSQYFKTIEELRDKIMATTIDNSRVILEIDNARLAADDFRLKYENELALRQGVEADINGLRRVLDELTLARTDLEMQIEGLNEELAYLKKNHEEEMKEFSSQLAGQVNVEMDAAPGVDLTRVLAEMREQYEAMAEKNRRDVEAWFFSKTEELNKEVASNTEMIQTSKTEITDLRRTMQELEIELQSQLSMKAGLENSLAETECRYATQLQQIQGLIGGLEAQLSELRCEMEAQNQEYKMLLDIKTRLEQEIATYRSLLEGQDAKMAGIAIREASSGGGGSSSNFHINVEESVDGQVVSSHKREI

| effect of a mutation on the interaction | Variant |
| --- | --- |
| with no effect | R373C |

Variants of: B1
Details: with nup62_human NUP62, P37198
Chain of nup62_human NUP62, P37198 (P37198 whole entry): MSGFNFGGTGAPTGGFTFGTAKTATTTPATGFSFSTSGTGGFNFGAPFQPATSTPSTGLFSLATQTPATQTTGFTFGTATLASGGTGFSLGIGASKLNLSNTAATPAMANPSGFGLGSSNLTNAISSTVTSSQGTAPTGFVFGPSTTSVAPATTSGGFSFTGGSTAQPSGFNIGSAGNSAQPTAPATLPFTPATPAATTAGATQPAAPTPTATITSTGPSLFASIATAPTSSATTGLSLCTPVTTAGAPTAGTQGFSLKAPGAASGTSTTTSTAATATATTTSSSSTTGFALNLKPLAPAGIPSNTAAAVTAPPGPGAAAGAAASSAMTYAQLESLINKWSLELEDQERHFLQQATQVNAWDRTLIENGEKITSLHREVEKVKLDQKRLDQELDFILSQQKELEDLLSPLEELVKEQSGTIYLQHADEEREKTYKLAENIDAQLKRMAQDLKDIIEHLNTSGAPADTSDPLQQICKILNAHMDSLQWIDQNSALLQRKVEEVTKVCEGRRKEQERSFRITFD

| effect of a mutation on the interaction | Variant |
| --- | --- |
| with no effect | R373C |

Variants of: B1
Details: with KRT19, P08727
Chain of KRT19, P08727 (P08727 whole entry): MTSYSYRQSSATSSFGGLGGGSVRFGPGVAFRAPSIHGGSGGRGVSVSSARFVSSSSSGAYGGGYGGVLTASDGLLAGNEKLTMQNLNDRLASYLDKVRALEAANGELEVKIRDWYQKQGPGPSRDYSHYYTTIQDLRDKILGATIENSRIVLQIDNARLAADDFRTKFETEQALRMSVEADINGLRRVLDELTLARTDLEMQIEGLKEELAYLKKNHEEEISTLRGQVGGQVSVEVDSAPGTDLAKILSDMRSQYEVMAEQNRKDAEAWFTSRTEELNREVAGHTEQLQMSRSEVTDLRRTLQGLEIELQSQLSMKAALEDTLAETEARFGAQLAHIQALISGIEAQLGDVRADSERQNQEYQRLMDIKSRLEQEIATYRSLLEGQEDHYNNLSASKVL

| effect of a mutation on the interaction | Variant |
| --- | --- |
| with no effect | R373C |

Variants of: B1
Details: with nck2_human NCK2, O43639
Chain of nck2_human NCK2, O43639 (O43639 whole entry): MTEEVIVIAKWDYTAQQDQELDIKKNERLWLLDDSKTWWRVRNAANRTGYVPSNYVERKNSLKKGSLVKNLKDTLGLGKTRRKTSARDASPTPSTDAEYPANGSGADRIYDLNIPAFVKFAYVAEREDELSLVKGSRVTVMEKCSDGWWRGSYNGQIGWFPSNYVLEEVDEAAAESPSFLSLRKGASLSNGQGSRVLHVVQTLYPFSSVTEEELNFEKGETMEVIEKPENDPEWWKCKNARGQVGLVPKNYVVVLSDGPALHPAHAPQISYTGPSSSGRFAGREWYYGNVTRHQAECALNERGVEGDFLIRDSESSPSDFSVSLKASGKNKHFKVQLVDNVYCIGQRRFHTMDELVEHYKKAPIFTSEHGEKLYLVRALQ

| effect of a mutation on the interaction | Variant |
| --- | --- |
| with no effect | R373C |

Variants of: B1
Details: with hgs_human HGS

| effect of a mutation on the interaction | Variant |
| --- | --- |
| with no effect | R373C |

Variants of: B1
Details: with sdcb1_human SDCBP

| effect of a mutation on the interaction | Variant |
| --- | --- |
| with no effect | R373C |

Variants of: B1
Details: with tri32_human TRIM32, Q13049

| effect of a mutation on the interaction | Variant |
| --- | --- |
| with no effect | R373C |

Variants of: B1
Details: with pcm1_human PCM1, Q15154
Chain of pcm1_human PCM1, Q15154 (Q15154 whole entry): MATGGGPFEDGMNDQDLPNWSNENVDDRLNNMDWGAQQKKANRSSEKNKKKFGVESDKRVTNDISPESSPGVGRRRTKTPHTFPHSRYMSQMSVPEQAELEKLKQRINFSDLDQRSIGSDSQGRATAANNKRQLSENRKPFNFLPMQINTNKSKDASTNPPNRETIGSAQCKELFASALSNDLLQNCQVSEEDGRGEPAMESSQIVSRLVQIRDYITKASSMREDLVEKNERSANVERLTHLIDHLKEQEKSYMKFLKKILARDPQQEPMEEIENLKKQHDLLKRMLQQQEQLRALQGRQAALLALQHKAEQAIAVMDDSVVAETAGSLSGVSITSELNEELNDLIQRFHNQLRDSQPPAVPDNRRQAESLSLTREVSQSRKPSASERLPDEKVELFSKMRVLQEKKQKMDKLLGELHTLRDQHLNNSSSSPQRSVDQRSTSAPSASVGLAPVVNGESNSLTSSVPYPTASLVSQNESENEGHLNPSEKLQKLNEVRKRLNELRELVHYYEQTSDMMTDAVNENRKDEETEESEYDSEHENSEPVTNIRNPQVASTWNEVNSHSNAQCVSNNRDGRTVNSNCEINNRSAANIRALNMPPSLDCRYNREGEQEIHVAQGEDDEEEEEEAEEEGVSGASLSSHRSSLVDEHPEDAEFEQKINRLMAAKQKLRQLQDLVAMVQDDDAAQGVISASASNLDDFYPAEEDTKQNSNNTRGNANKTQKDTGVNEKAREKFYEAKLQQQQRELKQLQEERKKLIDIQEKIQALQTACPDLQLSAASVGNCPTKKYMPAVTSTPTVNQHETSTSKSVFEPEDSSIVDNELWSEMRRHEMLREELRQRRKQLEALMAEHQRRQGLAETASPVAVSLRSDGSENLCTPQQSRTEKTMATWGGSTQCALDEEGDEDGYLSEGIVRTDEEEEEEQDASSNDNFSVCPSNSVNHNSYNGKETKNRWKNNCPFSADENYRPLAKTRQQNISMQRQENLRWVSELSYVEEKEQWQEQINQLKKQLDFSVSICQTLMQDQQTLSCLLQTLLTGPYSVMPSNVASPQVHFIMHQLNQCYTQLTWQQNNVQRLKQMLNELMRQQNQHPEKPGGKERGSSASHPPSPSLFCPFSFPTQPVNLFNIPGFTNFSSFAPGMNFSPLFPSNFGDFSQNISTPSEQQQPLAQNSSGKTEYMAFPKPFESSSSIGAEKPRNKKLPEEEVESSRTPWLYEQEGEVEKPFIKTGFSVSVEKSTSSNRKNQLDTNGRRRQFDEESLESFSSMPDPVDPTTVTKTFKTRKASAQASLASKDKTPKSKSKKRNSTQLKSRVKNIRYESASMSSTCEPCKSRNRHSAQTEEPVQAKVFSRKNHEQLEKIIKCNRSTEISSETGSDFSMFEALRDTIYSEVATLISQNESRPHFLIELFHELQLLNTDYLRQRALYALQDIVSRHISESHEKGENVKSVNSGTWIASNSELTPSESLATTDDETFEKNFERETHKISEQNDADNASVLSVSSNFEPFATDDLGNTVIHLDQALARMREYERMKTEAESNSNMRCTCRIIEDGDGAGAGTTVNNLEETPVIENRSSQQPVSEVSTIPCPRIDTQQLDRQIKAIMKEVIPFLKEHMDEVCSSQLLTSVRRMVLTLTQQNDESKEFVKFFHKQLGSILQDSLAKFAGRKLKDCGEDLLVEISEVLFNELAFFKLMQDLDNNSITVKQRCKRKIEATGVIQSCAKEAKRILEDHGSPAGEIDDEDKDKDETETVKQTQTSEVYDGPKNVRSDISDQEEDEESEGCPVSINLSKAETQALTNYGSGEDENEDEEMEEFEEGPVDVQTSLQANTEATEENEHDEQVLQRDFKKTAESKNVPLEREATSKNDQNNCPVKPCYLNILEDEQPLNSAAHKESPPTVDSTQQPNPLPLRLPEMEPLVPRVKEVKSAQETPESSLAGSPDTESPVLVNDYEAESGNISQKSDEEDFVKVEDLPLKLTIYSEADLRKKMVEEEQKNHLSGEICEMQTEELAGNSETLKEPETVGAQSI

| effect of a mutation on the interaction | Variant |
| --- | --- |
| with no effect | R373C |

Variants of: B1
Details: with vinc_human VCL

| effect of a mutation on the interaction | Variant |
| --- | --- |
| with no effect | R373C |

Variants of: B1
Details: with crx_human CRX

| effect of a mutation on the interaction | Variant |
| --- | --- |
| with no effect | R373C |

Variants of: B1
Details: with mr1l1_human MRFAP1L1, Q96HT8
Chain of mr1l1_human MRFAP1L1, Q96HT8 (Q96HT8 whole entry): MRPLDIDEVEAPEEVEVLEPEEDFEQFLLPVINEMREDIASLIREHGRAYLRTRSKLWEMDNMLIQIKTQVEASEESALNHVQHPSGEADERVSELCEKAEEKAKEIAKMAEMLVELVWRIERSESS

| effect of a mutation on the interaction | Variant |
| --- | --- |
| with no effect | R373C |

Variants of: B1
Details: with efs_human EFS

| effect of a mutation on the interaction | Variant |
| --- | --- |
| with no effect | R373C |

Variants of: B2
Details: with dctd_human DCTD

| effect of a mutation on the interaction | Variant |
| --- | --- |
| disrupting interaction strength | E295K |

Variants of: B3
Details: with rel_human REL

| effect of a mutation on the interaction | Variant |
| --- | --- |
| disrupting interaction strength | R54C |

Variants of: B4
Details: with bex5_human BEX5, Q5H9J7

| effect of a mutation on the interaction | Variant |
| --- | --- |
| with no effect | R218C |

Variants of: B5
Details: with magab_human MAGEA11, P43364

| effect of a mutation on the interaction | Variant |
| --- | --- |
| with no effect | I476T |

Variants of: B6
Details: with homez_human HOMEZ

| effect of a mutation on the interaction | Variant |
| --- | --- |
| with no effect | Q443R |
